Reference: PMC6856630, “Structures of neurexophilin–neurexin complexes reveal a regulatory mechanism of alternative splicing” (The EMBO Journal, 2019)
Several values for one entry are separate records, joined by “and”; a condition that tells them apart may be missing. Equal entries are not always repeated. Each block holds one binder with its values, some of them ahead of it.

B1: Nrxn1 LNS2^SS2− (I401Q), AviTag-His, biotinylated (BLI) (domain or fragment)
chain: not shown
modifications: biotin on the AviTag (BirA)
notes: numbers count on: UniProt Q9CS84-1 (isoform 1a); Igκ signal peptide at the N-terminus; source: 293F cells, transfected, secreted, purified (Ni-NTA, BirA biotinylation, Superdex Increase 200); not shown: AviTag, C-terminal, kept; His6, C-terminal, kept
B2: Nxph3-2XFLAG-His (rat neurexophilin-3, 50-252) (ligand, UniProt Q9Z2N5 50-252, looked up)
chain: RGHISPKSRPLANSTLLGLLAPPGEVWGILGQPPNRPKQSPLPSTKVKKIFGWGDFYSNIKTVALNLLVTGKIVDHGNGTFSVHFRHNATGQGNISISLVPPSKAVEFHQEQQIFIEAKASKIFNCRMEWEKVERGRRTSLCTHDPAKICSRDHAQSSATWSCSQPFKIVCVYIAFYSTDYRLVQKVCPDYNYHSDTPYYPSG
modifications: glycans (sites not given)
notes: Neurexophilin-3, rat, residues 50-252; Expressed with an Igκ signal peptide at the N-terminus; HRV 3C site before the tags, not cut; source: 293F cells, BacMam expression system, secreted; purification not described; not shown: 2xFLAG, C-terminal, kept; His6, C-terminal, kept
B4: Nxph1-2XFLAG-His (mature rat neurexophilin-1, 118-271, glycosylated) (ligand, UniProt Q63366 118-271, looked up)
chain: MFGWGDFHSNIKTVKLNLLITGKIVDHGNGTFSVYFRHNSTGQGNVSVSLVPPTKIVEFDLAQQTVIDAKDSKSFNCRIEYEKVDKATKNTLCNYDPSKTCYQEQTQSHVSWLCSKPFKVICIYISFYSTDYKLVQKVCPDYNYHSDTPYFPSG
modifications: N-linked glycans at N146, N156 and N162
notes: Neurexophilin-1, rat, mature form, residues 118-271; Expressed with an Igκ signal peptide at the N-terminus; HRV 3C site before the tags, not cut for the biochemical studies; source: 293F cells, BacMam expression system, secreted; purification of Nxph1 alone not described; not shown: 2xFLAG, C-terminal, kept; His6, C-terminal, kept
B6: Nrxn1 LNS2^SS2−, AviTag-His, biotinylated (BLI) (domain or fragment)
chain: not shown
modifications: biotin on the AviTag (BirA)
notes: as for B1

Key:
[1] = target: B2; experiment: BLI; Octet RED384; biotinylated neurexin LNS2 on streptavidin tips, Nxph in solution; 25°C, PBS pH 7.4, 50 nM TCEP, 1% BSA; global fit, double reference subtraction; conditions: both partners purified
[2] = target: the molecule itself; experiment: SEC-MALS; Superdex 200 10/300, 0.5 ml/min, PBS pH 7.4
[3] = target: B4; experiment: BLI; Octet RED384; biotinylated neurexin LNS2 on streptavidin tips, Nxph in solution; 25°C, PBS pH 7.4, 50 nM TCEP, 1% BSA; global fit, double reference subtraction; conditions: both partners purified
[4] = target: the molecule itself; experiment: SEC-MALS + other: SEC-SAXS; Nxph1 alone; SEC-MALS on Superdex 200 10/300 in PBS pH 7.4, SEC-SAXS on Superdex Increase 200 3.2/300
[5] = target: T1, Nrxn1 LNS2^SS2A+, AviTag-His, biotinylated (BLI) (mouse, UniProt Q9CS84-1 283-480, 283–386; 394–480, biotin on the AviTag (BirA)); experiment: BLI; Octet RED384; biotinylated neurexin LNS2 on streptavidin tips, Nxph in solution; 25°C, PBS pH 7.4, 50 nM TCEP, 1% BSA; global fit, double reference subtraction; conditions: both partners purified
T1 construct: numbers count on: UniProt Q9CS84-1 (isoform 1a); Igκ signal peptide at the N-terminus; source: 293F cells, transfected, secreted, purified (Ni-NTA, BirA biotinylation, Superdex Increase 200); not shown: AviTag, C-terminal, kept; His6, C-terminal, kept

[6] = target: T2, Nrxn1 LNS2^SS2A+ (I401Q), AviTag-His, biotinylated (BLI) (mouse, UniProt Q9CS84-1 283-480, 283–386; 394–480 | I401Q, biotin on the AviTag (BirA)); experiment: as above; conditions: both partners purified
T2 construct: numbers count on: UniProt Q9CS84-1 (isoform 1a); Igκ signal peptide at the N-terminus; source: 293F cells, transfected, secreted, purified (Ni-NTA, BirA biotinylation, Superdex Increase 200); not shown: AviTag, C-terminal, kept; His6, C-terminal, kept

[7] = target: B1; experiment: as above; conditions: both partners purified
[8] = target: B6; experiment: as above; conditions: both partners purified
[9] = target: T3, Nrxn1 LNS2^SS2A+, crystallographic construct (mouse, UniProt Q9CS84-1 283-480, 283–386; 394–480); experiment: SEC-MALS; Superdex 200 10/300, 0.5 ml/min, PBS pH 7.4; conditions: both partners purified
T3 construct: Neurexin-1 alpha, mouse, LNS2 domain with the eight-residue SS2A insert (379-386), residues 283-386 joined to 394-480; numbers count on: UniProt Q9CS84-1 (isoform 1a); Expressed with an Igκ signal peptide at the N-terminus; not shown: Twin-Strep, C-terminal, cleaved

[10] = target: T4, Nrxn1 LNS2^SS2− (C293A), crystallographic construct (mouse, UniProt Q9CS84-1 283-480, 283–378; 394–480 | C293A); experiment: as above; conditions: both partners purified
T4 construct: Neurexin-1 alpha, mouse, LNS2 domain without insert in splice site 2, residues 283-378 joined to 394-480; numbers count on: UniProt Q9CS84-1 (isoform 1a); Expressed with an Igκ signal peptide at the N-terminus; source: HEK293S GnTI- cells, BacMam, co-expressed with Nxph1^3ND, complex purified (HisTrap, StrepTrap, 3C cleavage, Mono Q); not shown: Twin-Strep, C-terminal, cleaved
T4 sequence (Q9CS84 other isoform, or with tags, fused parts or gaps with the stated changes): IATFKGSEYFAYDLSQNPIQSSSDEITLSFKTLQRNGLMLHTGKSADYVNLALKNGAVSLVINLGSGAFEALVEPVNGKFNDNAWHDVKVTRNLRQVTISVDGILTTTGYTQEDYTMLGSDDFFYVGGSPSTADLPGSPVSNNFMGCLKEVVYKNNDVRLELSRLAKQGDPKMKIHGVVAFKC

T1 sequence (Q9CS84 other isoform, or with tags, fused parts or gaps 283–386/394–480 | 283–386/394–480): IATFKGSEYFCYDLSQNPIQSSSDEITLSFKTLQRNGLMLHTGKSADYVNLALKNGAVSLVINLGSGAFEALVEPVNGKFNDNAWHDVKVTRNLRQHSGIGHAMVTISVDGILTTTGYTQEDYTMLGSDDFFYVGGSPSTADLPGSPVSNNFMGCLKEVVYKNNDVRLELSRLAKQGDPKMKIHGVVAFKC
T2 sequence (Q9CS84 other isoform, or with tags, fused parts or gaps with the stated changes): as the sequence (Q9CS84 other isoform, or with tags, fused parts or gaps 283–386/394–480 | 283–386/394–480) above, with I112Q counted along it
T3 sequence (Q9CS84 other isoform, or with tags, fused parts or gaps 283–386/394–480 | 283–386/394–480): as the sequence (Q9CS84 other isoform, or with tags, fused parts or gaps 283–386/394–480 | 283–386/394–480) above

Binder: B1
Kd [1]: 3340 nM
koff [1]: 0.00064 s⁻¹
kon [1]: 194 M⁻¹ s⁻¹

Binder: B2
binding result [2]: binds

Kd [3]: 31.4 nM
koff [3]: 6.4e-05 s⁻¹
kon [3]: 2060 M⁻¹ s⁻¹
B3: Nrxn3 LNS2^SS2A+, AviTag-His, biotinylated (BLI) (domain or fragment)
chain: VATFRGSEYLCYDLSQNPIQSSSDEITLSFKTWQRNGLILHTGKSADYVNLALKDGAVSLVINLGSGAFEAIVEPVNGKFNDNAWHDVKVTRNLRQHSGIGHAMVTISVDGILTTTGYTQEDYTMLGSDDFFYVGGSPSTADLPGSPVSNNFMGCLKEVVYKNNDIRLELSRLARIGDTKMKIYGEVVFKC
modifications: biotin on the AviTag (BirA)

Binder: B4
stoichiometry N [4]: 2 and 4
Kd [5]: 49 nM
koff [5]: 9.7e-05 s⁻¹
kon [5]: 2040 M⁻¹ s⁻¹
Kd [6]: 472 nM
koff [6]: 0.0002 s⁻¹
kon [6]: 419 M⁻¹ s⁻¹
Kd [7]: 16400 nM
koff [7]: 0.0034 s⁻¹
kon [7]: 220 M⁻¹ s⁻¹
Kd [8]: 299 nM
koff [8]: 0.00012 s⁻¹
kon [8]: 399 M⁻¹ s⁻¹

stoichiometry N [9]: 1
stoichiometry N [10]: 1
B5: Nxph1^3ND (mature rat neurexophilin-1, 118-271, N146D/N156D/N162D) (ligand, UniProt Q63366 118-271, looked up)
chain: MFGWGDFHSNIKTVKLNLLITGKIVDHGDGTFSVYFRHDSTGQGDVSVSLVPPTKIVEFDLAQQTVIDAKDSKSFNCRIEYEKVDKATKNTLCNYDPSKTCYQEQTQSHVSWLCSKPFKVICIYISFYSTDYKLVQKVCPDYNYHSDTPYFPSG
notes: Neurexophilin-1, rat, mature form, residues 118-271, the three N-linked glycosylation sites mutated to aspartic acid; Expressed with an Igκ signal peptide at the N-terminus; tags removed with HRV 3C protease; also called Nxph1 (in the crystal structures); source: HEK293S GnTI- cells, BacMam, co-expressed with LNS2, complex purified (HisTrap, StrepTrap, 3C cleavage, Mono Q); not shown: 2xFLAG, …

Binder: B6
Kd [1]: 260 nM
koff [1]: 0.0001 s⁻¹
kon [1]: 209 M⁻¹ s⁻¹
